Experiments:
[1] = biological target: T1, hKGF receptor present in the PC-3 plasma membrane extracts (UniProt P21802-3 22-822, limits assumed); assay: native gel electrophoretic mobility shift of 125I-hKGF by PC-3 plasma membrane extract
T1 construct: A crude detergent extract, not a purified protein; Two complexes (C1, C2) were seen; also called component found in the PC-3 membrane extracts
Description: (§1) For electrophoretic mobility shift gels, about 3×10⁷ PC-3 cells were gently spun and washed with PBS and then lysed by mixing with equal volume of lysis buffer containing 40 mM Hepes, pH 7.4, 150 mM NaCl, 20% glycerol, 2% triton X-100, 0.1% sodium azide, 3 mM MgCl₂, 3 mM EGTA, 2 μM aprotinin, 2 μM leupeptin, 2 mM PMSF, and 400 μM sodium orthovanadate. Following 15 min incubation on ice the extract was spun at 11,000 g at 4° C. for 30 min to remove debris and nuclei and the supernatant was aliquoted and stored at −70° C. […] Following a 10 min incubation at room temperature, 6× loading dye was added to achieve 1× concentration, and the samples were loaded onto a 5% or 10% native TBE polyacrylamide gel. The gel was prerun at room temperature at 100 Volts. Following loading, the gel was run at 200 Volts for 5 min and then at 100 Volts for 30-60 min at room temperature. The radioactive bands were then visualized by autoradiography.

[2] = biological target: T1, hKGF receptor present in the PC-3 …; assay: gel shift competition: unlabeled hKGF against 125I-hKGF with PC-3 plasma membrane extract
Description: as §1

T1 sequence (P21802 other isoform, or with tags, fused parts or gaps limits assumed): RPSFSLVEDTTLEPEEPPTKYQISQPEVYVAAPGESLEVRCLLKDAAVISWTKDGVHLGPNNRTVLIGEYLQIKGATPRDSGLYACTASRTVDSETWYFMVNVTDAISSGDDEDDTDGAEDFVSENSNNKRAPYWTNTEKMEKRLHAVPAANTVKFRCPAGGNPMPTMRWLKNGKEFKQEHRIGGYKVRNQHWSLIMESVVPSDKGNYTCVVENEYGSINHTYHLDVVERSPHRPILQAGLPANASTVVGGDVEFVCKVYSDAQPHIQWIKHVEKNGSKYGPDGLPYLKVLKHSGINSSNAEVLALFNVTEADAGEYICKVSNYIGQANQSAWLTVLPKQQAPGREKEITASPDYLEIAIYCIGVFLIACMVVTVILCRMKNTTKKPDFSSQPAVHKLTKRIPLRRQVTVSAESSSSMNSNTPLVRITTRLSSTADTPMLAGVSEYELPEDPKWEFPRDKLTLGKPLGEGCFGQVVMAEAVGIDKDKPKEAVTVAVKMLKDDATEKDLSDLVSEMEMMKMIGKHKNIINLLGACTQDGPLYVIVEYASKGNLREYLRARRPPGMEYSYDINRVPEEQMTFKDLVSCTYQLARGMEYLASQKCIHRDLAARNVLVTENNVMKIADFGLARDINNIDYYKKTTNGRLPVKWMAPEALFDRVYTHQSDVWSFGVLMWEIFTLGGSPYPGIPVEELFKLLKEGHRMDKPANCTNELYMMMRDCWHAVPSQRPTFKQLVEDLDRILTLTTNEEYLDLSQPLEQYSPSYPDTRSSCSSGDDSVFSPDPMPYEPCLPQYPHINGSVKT

B1: Recombinant human Keratinocyte Growth Factor (hKGF) (ligand, UniProt P21781 32-194, looked up)
chain: CNDMTPEQMATNVNCSSPERHTRSYDYMEGGDIRVRRLFCRTQWYLRIDKRGKVKGTQEMKNNYNIMEIRTVAVGIVAIKGVESEFYLAMNKEGKLYAKKECNEDCNFKELILENHYNTYASAKWTHNGGEMFVALNQKGIPVRGKKTKKEQKTAHFLPMAIT
notes: also called FGF-7
- Kd [1]: ~8 nM
- IC50 [2]: 70 nM
